Laboratory results reported in US20110076723A1, “ANTIBODY-PEPTIDE FUSED SYNERGIBODY” (SAMSUNG ELECTRONICS CO., LTD., priority 2008, published 2011).

T1: recombinant hAng-2 (recombinant protein with His tag attached to human Ang-2; R&D Systems) (human, UniProt O15123 19-496)
T1 construct: also called angiopoietin-2; ANGPT2
T1 sequence (looked up): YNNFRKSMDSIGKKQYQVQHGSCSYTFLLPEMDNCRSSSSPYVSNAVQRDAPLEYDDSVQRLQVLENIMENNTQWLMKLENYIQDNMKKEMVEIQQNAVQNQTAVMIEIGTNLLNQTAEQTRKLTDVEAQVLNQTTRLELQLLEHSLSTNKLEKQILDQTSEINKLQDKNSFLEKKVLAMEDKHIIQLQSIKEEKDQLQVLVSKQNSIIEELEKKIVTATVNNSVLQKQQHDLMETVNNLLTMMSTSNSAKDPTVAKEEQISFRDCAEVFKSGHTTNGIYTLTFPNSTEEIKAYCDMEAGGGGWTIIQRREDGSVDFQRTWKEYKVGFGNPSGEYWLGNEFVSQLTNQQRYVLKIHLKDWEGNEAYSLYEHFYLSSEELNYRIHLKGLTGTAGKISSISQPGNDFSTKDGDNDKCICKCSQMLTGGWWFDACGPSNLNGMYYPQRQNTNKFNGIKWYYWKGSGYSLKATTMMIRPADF


Columns and labels:
[1] = target: T1, recombinant hAng-2 (recombinant protein …); test: competitive ELISA; synergibody titrated with 1 nM hAng-2 (His) on coated hTie2-Fc
Experimental: A competitive ELISA is performed to assess the molecular interaction of the binders. A 96-well MaxiSorp™ flat-bottom plate (Nunc) is coated with hTie2-Fc (R&D Systems), which is a fused protein including the water-soluble extracellular portion of human Tie-2 and Fc of human IgG₁ dissolved in DMEM culture solution containing 50 μg/ml bovine serum albumin (BSA). The concentration of hTie2-Fc used as a coating material is equivalent to 75% of its maximum binding concentration with 1 nM of recombinant hAng-2 (recombinant protein with His tag attached to human Ang-2; R&D Systems). Then the plate is washed five times with Phosphate Buffer Saline (PBS) containing 0.1% Tween-20 and blocked at room temperature for two hours with PBS containing 5% BSA. Each anti-Ang-2 antibodies are diluted from 100 nM by one-fourth each time with PBS containing 1% BSA and 1 nM hAng-2 and adjusted to 6.1 pM for Ang-2:Tie-2 neutralization ELISA. 100 μl of antibody/hAng-2 solutions are placed in each corresponding well and left to react at room temperature for two hours. Then the wells are washed five times with PBS containing 0.1% Tween-20, and the anti-His antibodies (GE Healthcare) are diluted to about 1:3,000 with PBS containing 1% BSA and left to react at room temperature for one hour. Afterwards, 100 μl of goat anti-mouse-IgG-HRP (Pierce) diluted with PBS containing 1% BSA to about 1:10,000 is added to each well of the plate, left to react at room temperature for one hour, and washed with PBS containing 0.1% Tween-20 five times. Lastly, 100 μl of TMB substrate (SIGMA) is added to each well of the plate to induce color reaction, and the reaction is stopped by adding 50 μl of 5N H₂SO₄ solution. The OD₄₅₀ value is read on a plate reader (Molecular Devices).
The method described in Example 1, Section 3 above is used, except that, in the present example, each fused protein synergibodies are diluted from 100 nM to one-fourth each time with PBS containing 1% BSA and 1 nM hAng-2 and adjusted to 6.1 pM for Ang-2:Tie-2 neutralization ELISA.

[2] = target: T2, recombinant VEGFR-2 protein (water soluble extracellular site of human VEGFR-2 with Fc of human IgG1 … (human, UniProt P35968 20-764)); test: competitive ELISA; synergibody titrated with 1 nM VEGFR-2 on coated VEGF 165
T2 construct: extracellular domain; Bought; not shown: Fc of human IgG1
Experimental: Competitive ELISA is performed using the peptides synthesized above in Section 6A in order to assess the molecular interaction of the binders. […] Then the plate is washed five times with PBS containing 0.1% Tween-20, and blocked at room temperature for two hours with PBS containing 5% BSA. For VEGF:VEGFR-2 neutralization ELISA, each of the peptides synthesized in Section 6A above are diluted to one-fourth each time from 100 nM with PBS containing 1 nM VEGFR-2 and 1% BSA, and adjusted to 6.1 pM. 100 μl of peptide/VEGFR-2 solution is added to each well and the plate is left to react at room temperature for two hours. Subsequently, it is washed five times with PBS containing 0.1% Tween-20, mouse anti-VEGFR-2 antibodies (R&D Systems) is diluted to about 1:3,000 with PBS containing 1% BSA, and left to react at room temperature for one hour. Then 100 μl of goat anti-mouse-IgG-HRP (Pierce) diluted to about 1:10,000 with PBS containing 1% BSA is added to each well of the plate, left to react at room temperature for one hour, and washed five times with PBS containing 0.1% Tween-20. Lastly, 100 μl of TMB substrate (SIGMA) is added to each well of the plate to induce color reaction. The reaction is stopped by adding 50 μl of 5N H₂SO₄ solution, and the OD₄₅₀ value is read on a plate reader (Molecular Devices). Through the foregoing, the IC₅₀ value for the VEGF:VEGFR-2 binding capacity is obtained.
The method in Example 2, Section 6B above is used, except that, in the present example, each fused protein synergibodies are diluted from 100 nM to one-fourth each time with PBS containing 1% BSA and 1nM VEGFR-2 and adjusted to 6.1 pM for VEGF:VEGF-2 neutralization ELISA.

T2 sequence (P35968 20-764): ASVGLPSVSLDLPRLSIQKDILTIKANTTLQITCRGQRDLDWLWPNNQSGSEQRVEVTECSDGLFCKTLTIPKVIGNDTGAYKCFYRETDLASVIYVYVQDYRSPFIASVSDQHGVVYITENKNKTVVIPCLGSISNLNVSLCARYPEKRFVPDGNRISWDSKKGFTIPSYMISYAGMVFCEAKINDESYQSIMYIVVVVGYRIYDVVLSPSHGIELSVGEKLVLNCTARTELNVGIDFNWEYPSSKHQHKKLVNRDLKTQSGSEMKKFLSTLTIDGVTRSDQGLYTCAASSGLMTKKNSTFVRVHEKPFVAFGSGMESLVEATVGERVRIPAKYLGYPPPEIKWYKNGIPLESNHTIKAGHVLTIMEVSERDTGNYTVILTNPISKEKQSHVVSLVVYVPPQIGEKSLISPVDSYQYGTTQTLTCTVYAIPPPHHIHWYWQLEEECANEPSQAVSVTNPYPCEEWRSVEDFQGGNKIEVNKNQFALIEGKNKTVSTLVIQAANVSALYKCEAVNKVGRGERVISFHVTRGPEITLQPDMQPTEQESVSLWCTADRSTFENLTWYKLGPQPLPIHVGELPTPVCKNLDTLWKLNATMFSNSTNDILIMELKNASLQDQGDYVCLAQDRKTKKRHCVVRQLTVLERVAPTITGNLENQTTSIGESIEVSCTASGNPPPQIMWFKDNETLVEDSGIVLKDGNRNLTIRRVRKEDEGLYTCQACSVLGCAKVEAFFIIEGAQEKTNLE

| Binder | IC50 [1] [nM] | IC50 [2] [nM] |
| --- | --- | --- |
| Syn-Ang-VEGFR-6 (other, Chimeric (human IgG1) SAITAng-2-2 with the peptide at the C-terminus of the heavy chain; also called SAITAng-2-2 x DTN6VEGFR-2-1; not shown: human IgG1 heavy chain constant region with Fc region, from the vector; human light chain constant region, printed as 'constant region of human IgG1') heavy (part 1 of 2): QVQLQQSGPELVKPGASVKMSCKASGYTFTDYVISWVKQRTGQGLEWIGEIYPGSGSTYYNEKFKGKASLTADKSSNTAYMQLSSLTSADSAVYFCVRSRGDYYAMDYWGQGTSVTVSS heavy (part 2 of 2): TGSDDLCYTFPCMHY light: DIQMTQSPSSLSASLGGKVTITCKASQDINNYITWYQHKPGKGPRLLIHYTSTLQPGIPSRFSGSGSGRDYSFSISNLEPEDIATYYCLQYDNLLTFGGGTKLEIK | 1.91 | 1.56 |
| Syn-Ang-VEGFR-7 (other, Chimeric (human IgG1) SAITAng-2-2 with the peptide at the C-terminus of the heavy chain; also called SAITAng-2-2 x DTN8VEGFR-2-2; not shown: human IgG1 heavy chain constant region with Fc region, from the vector; human light chain constant region, printed as 'constant region of human IgG1') heavy (part 1 of 2): QVQLQQSGPELVKPGASVKMSCKASGYTFTDYVISWVKQRTGQGLEWIGEIYPGSGSTYYNEKFKGKASLTADKSSNTAYMQLSSLTSADSAVYFCVRSRGDYYAMDYWGQGTSVTVSS heavy (part 2 of 2): EAGKETCGYEWQYCPRP light: DIQMTQSPSSLSASLGGKVTITCKASQDINNYITWYQHKPGKGPRLLIHYTSTLQPGIPSRFSGSGSGRDYSFSISNLEPEDIATYYCLQYDNLLTFGGGTKLEIK | 2.01 | 1.76 |
| Syn-Ang-VEGFR-8 (other, Chimeric (human IgG1) SAITAng-2-2 with the peptide at the C-terminus of the heavy chain; also called SAITAng-2-2 x DTN9VEGFR-2-3; not shown: human IgG1 heavy chain constant region with Fc region, from the vector; human light chain constant region, printed as 'constant region of human IgG1') heavy (part 1 of 2): QVQLQQSGPELVKPGASVKMSCKASGYTFTDYVISWVKQRTGQGLEWIGEIYPGSGSTYYNEKFKGKASLTADKSSNTAYMQLSSLTSADSAVYFCVRSRGDYYAMDYWGQGTSVTVSS heavy (part 2 of 2): EAGAYWCKAWGLSPCLVT light: DIQMTQSPSSLSASLGGKVTITCKASQDINNYITWYQHKPGKGPRLLIHYTSTLQPGIPSRFSGSGSGRDYSFSISNLEPEDIATYYCLQYDNLLTFGGGTKLEIK | 2.22 | 1.48 |
| Syn-Ang-VEGFR-9 (other, Chimeric (human IgG1) SAITAng-2-2 with the peptide at the C-terminus of the heavy chain; also called SAITAng-2-2 x DTN10VEGFR-2-4; not shown: human IgG1 heavy chain constant region with Fc region, from the vector; human light chain constant region, printed as 'constant region of human IgG1') heavy (part 1 of 2): QVQLQQSGPELVKPGASVKMSCKASGYTFTDYVISWVKQRTGQGLEWIGEIYPGSGSTYYNEKFKGKASLTADKSSNTAYMQLSSLTSADSAVYFCVRSRGDYYAMDYWGQGTSVTVSS heavy (part 2 of 2): TGSGRMCDGSGPPTNCWFT light: DIQMTQSPSSLSASLGGKVTITCKASQDINNYITWYQHKPGKGPRLLIHYTSTLQPGIPSRFSGSGSGRDYSFSISNLEPEDIATYYCLQYDNLLTFGGGTKLEIK | 1.95 | 2.04 |
| Syn-Ang-VEGFR-10 (other, Chimeric (human IgG1) SAITAng-2-2 with the peptide at the C-terminus of the heavy chain; also called SAITAng-2-2 x DTN11VEGFR-2-5; not shown: human IgG1 heavy chain constant region with Fc region, from the vector; human light chain constant region, printed as 'constant region of human IgG1') heavy (part 1 of 2): QVQLQQSGPELVKPGASVKMSCKASGYTFTDYVISWVKQRTGQGLEWIGEIYPGSGSTYYNEKFKGKASLTADKSSNTAYMQLSSLTSADSAVYFCVRSRGDYYAMDYWGQGTSVTVSS heavy (part 2 of 2): PGSQGYCHLNMRYQWICDSE light: DIQMTQSPSSLSASLGGKVTITCKASQDINNYITWYQHKPGKGPRLLIHYTSTLQPGIPSRFSGSGSGRDYSFSISNLEPEDIATYYCLQYDNLLTFGGGTKLEIK | 2 | 2.16 |
| Syn-Ang-VEGFR-11 (other, Chimeric (human IgG1) SAITAng-2-3 with the peptide at the C-terminus of the heavy chain; also called SAITAng-2-3 x DTN6VEGFR-2-1; not shown: human IgG1 heavy chain constant region with Fc region, from the vector; human light chain constant region, printed as 'constant region of human IgG1') heavy (part 1 of 2): DVQLVESGGGLVQPGGSRKLSCAASGFTFSSFGMHWVRQAPEKGLEWVAYISSDSSTIYYADTVKGRFTISRDNPKNTLFLQMTSLRSEDTAMYYCAREGGYDDYYAMDYWGQGTSVTVSS heavy (part 2 of 2): TGSDDLCYTFPCMHY light: DIQMTQSPASQSASLGESVTITCLASQTIGTWLAWYQQKPGKSPQLLIYAATSLADGVPSRFSGSGSGTKFSFKISSLQAEDFVSYYCQQLYSIPLTFGGGTKLEIK | 0.858 | 0.872 |
